B1: TPP-1246 CD137A-6GS-HSA2-6GS-PD138G7(G109D) (bispecific antibody)
chain: EVQLVESGGGLVQPGGSLRLSCAASGFTLSNYWMNWVRQAPGKGLEWVANINQDGSERYYVDSVKGRFTISRDNAKNSLYLQMNSLRAEDTAVYYCARGGEGYGVDHYGLDVSGQGTTVTVSSGGGGSGGGGSGGGGSGGGGSGGGGSGGGGSEVQLVESGGGLVKPGGSLRLSCAASGFTFSNYNMNWVRQAPGKGLEWVSSISSAGTHIYYADSVKGRFTISRDNAKNSLYLQMNSLRAEDTAVYYCARDPHSTGWYKDFDYWGQGTLVTVSSGGGGSGGGGSGGGGSGGGGSGGGGSGGGGSEVQLVESGGGVVRPGGSLRLSCAASGFTFDDYAMSWVRQAPGKGLEWVSGITWNGGSTGYADSVKDRFTISRDNAKNSLYLQMNSLRAEDTALYYCVRDKYSYAWSYDDFDIWGQGTMVTVSS
B2: TPP-1290 PD138G7(G109D)-6GS-CD137A-6GS-HSA2 (bispecific antibody)
chain: EVQLVESGGGVVRPGGSLRLSCAASGFTFDDYAMSWVRQAPGKGLEWVSGITWNGGSTGYADSVKDRFTISRDNAKNSLYLQMNSLRAEDTALYYCVRDKYSYAWSYDDFDIWGQGTMVTVSSGGGGSGGGGSGGGGSGGGGSGGGGSGGGGSEVQLVESGGGLVQPGGSLRLSCAASGFTLSNYWMNWVRQAPGKGLEWVANINQDGSERYYVDSVKGRFTISRDNAKNSLYLQMNSLRAEDTAVYYCARGGEGYGVDHYGLDVSGQGTTVTVSSGGGGSGGGGSGGGGSGGGGSGGGGSGGGGSEVQLVESGGGLVKPGGSLRLSCAASGFTFSNYNMNWVRQAPGKGLEWVSSISSAGTHIYYADSVKGRFTISRDNAKNSLYLQMNSLRAEDTAVYYCARDPHSTGWYKDFDYWGQGTLVTVSS
B3: TPP-1439 PD138G7(G109D)-6GS-PD138G7(G109D)-6GS-CD137A-7-6GS-HSA2 (bispecific antibody)
chain: EVQLVESGGGVVRPGGSLRLSCAASGFTFDDYAMSWVRQAPGKGLEWVSGITWNGGSTGYADSVKDRFTISRDNAKNSLYLQMNSLRAEDTALYYCVRDKYSYAWSYDDFDIWGQGTMVTVSSGGGGSGGGGSGGGGSGGGGSGGGGSGGGGSEVQLVESGGGVVRPGGSLRLSCAASGFTFDDYAMSWVRQAPGKGLEWVSGITWNGGSTGYADSVKDRFTISRDNAKNSLYLQMNSLRAEDTALYYCVRDKYSYAWSYDDFDIWGQGTMVTVSSGGGGSGGGGSGGGGSGGGGSGGGGSGGGGSEVQLVESGGGLVQPGGSLRLSCAASGFTLSNYWMNWVRQAPGKGLEWVANINQDGSERYYVDSVKGRFTISRDNAKNSLYLQMNSLRAEDTAVYYCARGGEGYGVDHYGLDVSGQGTTVTVSSGGGGSGGGGSGGGGSGGGGSGGGGSGGGGSEVQLVESGGGLVKPGGSLRLSCAASGFTFSNYNMNWVRQAPGKGLEWVSSISSAGTHIYYADSVKGRFTISRDNAKNSLYLQMNSLRAEDTAVYYCARDPHSTGWYKDFDYWGQGTLVTVSS
B4: TPP-1438 CD137A-6GS-HSA2-6GS-PD138G7(G109D)-6GS-PD138G7(G109D) (bispecific antibody)
chain: EVQLVESGGGLVQPGGSLRLSCAASGFTLSNYWMNWVRQAPGKGLEWVANINQDGSERYYVDSVKGRFTISRDNAKNSLYLQMNSLRAEDTAVYYCARGGEGYGVDHYGLDVSGQGTTVTVSSGGGGSGGGGSGGGGSGGGGSGGGGSGGGGSEVQLVESGGGLVKPGGSLRLSCAASGFTFSNYNMNWVRQAPGKGLEWVSSISSAGTHIYYADSVKGRFTISRDNAKNSLYLQMNSLRAEDTAVYYCARDPHSTGWYKDFDYWGQGTLVTVSSGGGGSGGGGSGGGGSGGGGSGGGGSGGGGSEVQLVESGGGVVRPGGSLRLSCAASGFTFDDYAMSWVRQAPGKGLEWVSGITWNGGSTGYADSVKDRFTISRDNAKNSLYLQMNSLRAEDTALYYCVRDKYSYAWSYDDFDIWGQGTMVTVSSGGGGSGGGGSGGGGSGGGGSGGGGSGGGGSEVQLVESGGGVVRPGGSLRLSCAASGFTFDDYAMSWVRQAPGKGLEWVSGITWNGGSTGYADSVKDRFTISRDNAKNSLYLQMNSLRAEDTALYYCVRDKYSYAWSYDDFDIWGQGTMVTVSS
B5: TPP-1410 PD138G7(G109D)-1GS-CD137A-6GS-HSA2 (bispecific antibody)
chain: EVQLVESGGGVVRPGGSLRLSCAASGFTFDDYAMSWVRQAPGKGLEWVSGITWNGGSTGYADSVKDRFTISRDNAKNSLYLQMNSLRAEDTALYYCVRDKYSYAWSYDDFDIWGQGTMVTVSSGGGGSEVQLVESGGGLVQPGGSLRLSCAASGFTLSNYWMNWVRQAPGKGLEWVANINQDGSERYYVDSVKGRFTISRDNAKNSLYLQMNSLRAEDTAVYYCARGGEGYGVDHYGLDVSGQGTTVTVSSGGGGSGGGGSGGGGSGGGGSGGGGSGGGGSEVQLVESGGGLVKPGGSLRLSCAASGFTFSNYNMNWVRQAPGKGLEWVSSISSAGTHIYYADSVKGRFTISRDNAKNSLYLQMNSLRAEDTAVYYCARDPHSTGWYKDFDYWGQGTLVTVSS
B6: TPP-1409 CD137A-1GS-HSA2-1GS-PD138G7(G109D) (bispecific antibody)
chain: EVQLVESGGGLVQPGGSLRLSCAASGFTLSNYWMNWVRQAPGKGLEWVANINQDGSERYYVDSVKGRFTISRDNAKNSLYLQMNSLRAEDTAVYYCARGGEGYGVDHYGLDVSGQGTTVTVSSGGGGSEVQLVESGGGLVKPGGSLRLSCAASGFTFSNYNMNWVRQAPGKGLEWVSSISSAGTHIYYADSVKGRFTISRDNAKNSLYLQMNSLRAEDTAVYYCARDPHSTGWYKDFDYWGQGTLVTVSSGGGGSEVQLVESGGGVVRPGGSLRLSCAASGFTFDDYAMSWVRQAPGKGLEWVSGITWNGGSTGYADSVKDRFTISRDNAKNSLYLQMNSLRAEDTALYYCVRDKYSYAWSYDDFDIWGQGTMVTVSS

The first experiment deals with human CD137 and human PD-1 on stimulated primary human T cells (human). Description: flow cytometry, labelled VH on activated CD137+ human T cells (human control), n = 1.
With B1, the EC50 was 3.75 nM.
As to B2, the concentration for a half-maximal effect (EC50) stood at 6.87 nM.

A further experiment has the same target. Description: flow cytometry, AF488-labelled VH on pre-stimulated human CD8+ cells, average of 2 donors.
Turning to B1, the EC50 was determined as 2.22 nM.
On the same count and under the same terms, the same measure for B2: 1.49 nM.

The target in another experiment is CD137 and PD1 individually fused to subunits of NanoLuc luciferase, on the same cell (NanoBiT assay cells). Description: NanoBiT cell based protein interaction assay, luminescence on bridging of CD137 and PD1 on one cell.
Consider B3, for which the EC50 was 0.148 nM.
The same measure, in the same setting: in the case of B1 it was 0.0251 nM; in that of B4, 0.105 nM; in that of B2, 0.0515 nM.
Still for that read-out and setting: in the case of B5 it was 0.0532 nM.
Still for that read-out and setting: the same measure for B6: 0.0259 nM.

The next experiment addresses cynomolgus CD137 and cynomolgus PD-1 on activated CD137+ cynomolgus T cells (cynomolgus) (UniProt A9YYE7). Description: flow cytometry, labelled VH on activated CD137+ cynomolgus T cells, n = 3.
B1 came in with an EC50 of 3.63 nM.
Still for that read-out and setting: the same measure for B2: 7.17 nM.

These data come from US20220220215A1.
